Molecular target: T1, 150 kDa C-terminal fragment of wild-type GAS57 (Streptococcus pyogenes (M1 SF370))
T1 construct: also called 150 kDa fragment; 150.5 kDa fragment
T1 chain: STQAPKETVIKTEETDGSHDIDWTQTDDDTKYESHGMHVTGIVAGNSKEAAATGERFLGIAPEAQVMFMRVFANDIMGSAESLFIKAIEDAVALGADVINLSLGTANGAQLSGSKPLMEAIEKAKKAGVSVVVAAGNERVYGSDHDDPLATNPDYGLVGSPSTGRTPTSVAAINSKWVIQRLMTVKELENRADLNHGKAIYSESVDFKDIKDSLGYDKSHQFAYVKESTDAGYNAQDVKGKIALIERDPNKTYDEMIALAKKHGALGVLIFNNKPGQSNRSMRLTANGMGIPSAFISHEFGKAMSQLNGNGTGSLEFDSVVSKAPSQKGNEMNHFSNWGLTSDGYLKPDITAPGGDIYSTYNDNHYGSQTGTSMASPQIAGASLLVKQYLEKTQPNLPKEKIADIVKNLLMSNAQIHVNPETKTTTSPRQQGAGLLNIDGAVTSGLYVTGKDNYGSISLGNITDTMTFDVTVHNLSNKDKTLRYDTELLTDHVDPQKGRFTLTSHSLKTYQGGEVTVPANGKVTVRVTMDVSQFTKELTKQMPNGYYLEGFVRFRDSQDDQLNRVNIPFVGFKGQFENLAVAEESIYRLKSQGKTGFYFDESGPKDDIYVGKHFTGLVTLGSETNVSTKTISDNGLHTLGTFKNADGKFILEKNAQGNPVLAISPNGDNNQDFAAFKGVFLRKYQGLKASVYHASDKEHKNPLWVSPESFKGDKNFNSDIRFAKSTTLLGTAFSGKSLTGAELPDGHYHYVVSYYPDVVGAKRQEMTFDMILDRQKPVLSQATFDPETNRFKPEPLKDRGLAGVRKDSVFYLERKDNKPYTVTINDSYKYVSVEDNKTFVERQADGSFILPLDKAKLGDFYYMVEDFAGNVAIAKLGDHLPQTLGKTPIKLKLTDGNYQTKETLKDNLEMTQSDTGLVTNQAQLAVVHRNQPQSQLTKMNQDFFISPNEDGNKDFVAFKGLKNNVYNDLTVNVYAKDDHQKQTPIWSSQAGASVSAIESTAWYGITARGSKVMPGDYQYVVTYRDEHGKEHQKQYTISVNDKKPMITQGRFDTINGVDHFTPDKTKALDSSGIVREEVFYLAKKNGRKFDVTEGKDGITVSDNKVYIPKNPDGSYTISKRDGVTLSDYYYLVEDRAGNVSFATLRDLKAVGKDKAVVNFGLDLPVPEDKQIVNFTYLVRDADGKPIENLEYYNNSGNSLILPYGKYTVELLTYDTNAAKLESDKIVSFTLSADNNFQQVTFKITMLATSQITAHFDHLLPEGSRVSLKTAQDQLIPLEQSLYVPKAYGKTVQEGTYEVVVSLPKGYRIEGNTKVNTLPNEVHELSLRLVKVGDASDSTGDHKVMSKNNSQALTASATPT
Assay: co-purification on Ni-chelating affinity column and gel filtration; SDS-PAGE

B1: 23 kDa N-terminal fragment of wild-type GAS57 (other)
chain: ADELSTMSEPTITNHAQQQAQHLTNTELSSAESKSQDTSQITLKTNREKEQSQDLVSEPTTTELADTDAASMANTGSDATQKSASLPPVNTDVHDWVKTKGAWDKGYKGQGKVVAVIDTGIDPAHQSMRISDVSTAKVKSKEDMLARQKAAGINYGSWINDKVVFAHNYVENSDNIKENQFEDFDEDWENFEFDAEAEPKAIKKHKIYRPQ
notes: also called 23 kDa fragment; 23.4 kDa fragment
B1: binds.

From patent US20130202609A1 (Novartis, published 2013)
